The text below walks through data of paper PMC9843055, “Karyopherin α deficiency contributes to human preimplantation embryo arrest” (The Journal of Clinical Investigation, 2023).

The target of this test is T1, human KPNA7 (karyopherin subunit α7), WT, purified, GST cleaved (human, UniProt A9QM74 1-516).
T1 construct: karyopherin subunit α7 (importin α8), human; also called hKPNA7; importin α8; source: E. coli BL21 (DE3) plysS, purified (glutathione Sepharose, GST tag cut with PreScission protease)
Put plainly: pull-down; GST-SV40TNLS-GFP or GST-RSL1D1-GFP held on GST beads (4°C, 1 h, transport buffer with 0.1% Triton X-100), then cleaved WT or mutant KPNA7 at 4°C for 2 h; Western blotting. The following applies: both partners purified.

T1 sequence (A9QM74 whole entry): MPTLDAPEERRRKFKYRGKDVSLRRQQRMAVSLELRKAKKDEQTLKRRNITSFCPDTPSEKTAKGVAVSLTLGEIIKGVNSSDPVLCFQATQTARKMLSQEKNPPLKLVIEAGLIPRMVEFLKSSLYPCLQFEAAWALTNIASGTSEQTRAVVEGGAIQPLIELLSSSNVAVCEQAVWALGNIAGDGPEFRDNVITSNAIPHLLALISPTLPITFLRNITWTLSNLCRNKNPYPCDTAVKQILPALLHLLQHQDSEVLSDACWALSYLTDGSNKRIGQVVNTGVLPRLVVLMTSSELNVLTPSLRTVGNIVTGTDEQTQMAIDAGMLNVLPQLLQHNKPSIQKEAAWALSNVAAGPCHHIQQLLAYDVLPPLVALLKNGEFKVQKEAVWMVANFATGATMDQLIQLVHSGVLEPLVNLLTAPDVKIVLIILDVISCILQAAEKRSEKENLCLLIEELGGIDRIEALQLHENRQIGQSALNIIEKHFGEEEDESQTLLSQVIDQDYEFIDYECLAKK

B1: GST-SV40TNLS-GFP (other)
chain: PKKKRKV
notes: nuclear localization signal of the SV40 large T antigen (SV40TNLS), between GST and GFP; source: E. coli BL21 (DE3) plysS, purified (glutathione Sepharose); not shown: GST, N-terminal, kept; GFP, C-terminal, kept
Turning to B1, the binding result was “binds”.
